# Measured values as given in the supplement of paper PMC9112550, “Optimization of the antimicrobial peptide Bac7 by deep mutational scanning” (BMC Biology, 2022).
# Tested on: Escherichia coli TOP10
# Assay: shrunken log2 fold change of peptide-encoding DNA abundance (4.5 h post-induction vs induction); higher = less antimicrobial activity (less host growth inhibition)
# Details: time post-induction: 4.5 h; library: site-saturation at positions 5, 18, 19, 20
# 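Note: peptides expressed intracellularly from a pBAD plasmid library in pooled LB shake-flask culture, induced with 0.3% L-arabinose, DNA abundance read by NGS, three biological replicates, DESeq2 with apeglm shrinkage.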
row,Sequence,shrunken log2 fold change
1,RRIRQRPPRLPRPRPRPSIAPRP,-0.00998
2,RRIRYRPPRLPRPRPRPCSIPRP,-0.0204
3,RRIRFRPPRLPRPRPRPTSYPRP,-0.43
4,RRIRIRPPRLPRPRPRPCPIPRP,0.128
5,RRIRVRPPRLPRPRPRPPDMPRP,-0.239
6,RRIRRRPPRLPRPRPRPPQAPRP,1.19
7,RRIRQRPPRLPRPRPRPIVNPRP,-0.0197
8,RRIRRRPPRLPRPRPRPSLYPRP,-0.35
9,RRIRMRPPRLPRPRPRPCFHPRP,-0.318
10,RRIRMRPPRLPRPRPRPKMYPRP,0.0587
11,RRIRMRPPRLPRPRPRPHWAPRP,0.00824
12,RRIRERPPRLPRPRPRPHKWPRP,-0.0895
13,RRIRLRPPRLPRPRPRPYACPRP,-0.0291
14,RRIRNRPPRLPRPRPRPVQMPRP,0.0259
15,RRIRDRPPRLPRPRPRPNQFPRP,-0.416
16,RRIRGRPPRLPRPRPRPEPWPRP,0.655
17,RRIRLRPPRLPRPRPRPKGPPRP,0.28
18,RRIRSRPPRLPRPRPRPITNPRP,0.266
19,RRIRYRPPRLPRPRPRPCDTPRP,-0.0977
20,RRIRPRPPRLPRPRPRPEGTPRP,0.0836
21,RRIRWRPPRLPRPRPRPVRQPRP,0.161
22,RRIRARPPRLPRPRPRPMFNPRP,-0.132
23,RRIRNRPPRLPRPRPRPVRIPRP,0.0513
24,RRIRIRPPRLPRPRPRPYQDPRP,-0.0361
25,RRIRNRPPRLPRPRPRPDSYPRP,-0.054

row,Sequence,shrunken log2 fold change
1,RRIRCRPPRLPRPRPRPTTFPRP,-0.635
2,RRIRIRPPRLPRPRPRPLNIPRP,-0.925
3,RRIRYRPPRLPRPRPRPESLPRP,-0.0595
4,RRIRNRPPRLPRPRPRPEAIPRP,0.113
5,RRIRARPPRLPRPRPRPSYNPRP,-0.428
6,RRIRNRPPRLPRPRPRPAGVPRP,0.329
7,RRIRSRPPRLPRPRPRPWRAPRP,0.183
8,RRIRRRPPRLPRPRPRPTMWPRP,0.364
9,RRIRHRPPRLPRPRPRPRHPPRP,0.0823
10,RRIRTRPPRLPRPRPRPTRGPRP,0.705
11,RRIRLRPPRLPRPRPRPYSHPRP,-0.444
12,RRIRWRPPRLPRPRPRPGTCPRP,0.0934
13,RRIRFRPPRLPRPRPRPFIRPRP,-0.588
14,RRIRDRPPRLPRPRPRPCVAPRP,0.633
15,RRIRSRPPRLPRPRPRPSGWPRP,0.434
16,RRIRKRPPRLPRPRPRPKKSPRP,0.575
17,RRIRNRPPRLPRPRPRPYQEPRP,-0.00962
18,RRIRARPPRLPRPRPRPSPYPRP,-0.333
19,RRIRGRPPRLPRPRPRPFCNPRP,0.243
20,RRIRKRPPRLPRPRPRPTTNPRP,0.486
21,RRIRERPPRLPRPRPRPDCGPRP,0.0191
22,RRIRFRPPRLPRPRPRPDNEPRP,-0.0688
23,RRIRSRPPRLPRPRPRPIMVPRP,-0.644
24,RRIRARPPRLPRPRPRPYPDPRP,-0.0126
25,RRIRRRPPRLPRPRPRPFMQPRP,-0.0994

row,Sequence,shrunken log2 fold change
1,RRIRIRPPRLPRPRPRPQKTPRP,-0.168
2,RRIRHRPPRLPRPRPRPPNEPRP,0.159
3,RRIRKRPPRLPRPRPRPTFCPRP,0.193
4,RRIRKRPPRLPRPRPRPEKWPRP,0.422
5,RRIRQRPPRLPRPRPRPGYYPRP,-0.476
6,RRIRCRPPRLPRPRPRPHWPPRP,0.149
7,RRIRMRPPRLPRPRPRPILDPRP,-0.0606
8,RRIRRRPPRLPRPRPRPPCRPRP,1.09
9,RRIRTRPPRLPRPRPRPVCNPRP,-0.345
10,RRIRCRPPRLPRPRPRPRMAPRP,0.331
11,RRIRNRPPRLPRPRPRPIWIPRP,-0.0856
12,RRIRIRPPRLPRPRPRPCMHPRP,-0.171
13,RRIRSRPPRLPRPRPRPLCKPRP,-0.137
14,RRIRLRPPRLPRPRPRPWRCPRP,0.336
15,RRIRLRPPRLPRPRPRPPESPRP,0.367
16,RRIRVRPPRLPRPRPRPKVEPRP,0.317
17,RRIRLRPPRLPRPRPRPWCYPRP,-0.489
18,RRIRARPPRLPRPRPRPPMMPRP,0.421
19,RRIRDRPPRLPRPRPRPPTLPRP,-0.0573
20,RRIRHRPPRLPRPRPRPRRHPRP,0.153
21,RRIRWRPPRLPRPRPRPVITPRP,0.362
22,RRIRHRPPRLPRPRPRPTGTPRP,-0.0618
23,RRIRERPPRLPRPRPRPAHTPRP,-0.0788
24,RRIRWRPPRLPRPRPRPQLCPRP,0.078
25,RRIRDRPPRLPRPRPRPAEHPRP,-0.0618
